In the supplement of paper PMC9112550, “Optimization of the antimicrobial peptide Bac7 by deep mutational scanning” (BMC Biology, 2022):

System: Escherichia coli TOP10
Test: shrunken log2 fold change of peptide-encoding DNA abundance (4.5 h post-induction vs induction); higher = less antimicrobial activity (less host growth inhibition)
Settings: time post-induction: 4.5 h; library: site-saturation at positions 5, 18, 19, 20
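Further: peptides expressed intracellularly from a pBAD plasmid library in pooled LB shake-flask culture, induced with 0.3% L-arabinose, DNA abundance read by NGS, three biological replicates, DESeq2 with apeglm shrinkage.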

Row | Sequence | shrunken log2 fold change
1 | RRIRYRPPRLPRPRPRPGPEPRP | 0.0444
2 | RRIRVRPPRLPRPRPRPKSPPRP | 0.272
3 | RRIRMRPPRLPRPRPRPSRVPRP | 0.885
4 | RRIRARPPRLPRPRPRPATLPRP | 0.34
5 | RRIRTRPPRLPRPRPRPRIPPRP | 0.00212
6 | RRIRCRPPRLPRPRPRPCIMPRP | -0.336
7 | RRIRERPPRLPRPRPRPTAHPRP | 0.0481
8 | RRIRVRPPRLPRPRPRPTCLPRP | 0.332
9 | RRIRVRPPRLPRPRPRPREKPRP | 0.179
10 | RRIRCRPPRLPRPRPRPVFFPRP | -0.0521
11 | RRIRWRPPRLPRPRPRPFAEPRP | 0.801
12 | RRIRWRPPRLPRPRPRPESVPRP | 0.192
13 | RRIRARPPRLPRPRPRPYHDPRP | -0.365
14 | RRIRWRPPRLPRPRPRPKYNPRP | -0.558
15 | RRIRPRPPRLPRPRPRPNYCPRP | -0.239
16 | RRIRERPPRLPRPRPRPNWLPRP | -0.00723
17 | RRIRNRPPRLPRPRPRPVGNPRP | -0.00879
18 | RRIRGRPPRLPRPRPRPNKCPRP | 0.139
19 | RRIRGRPPRLPRPRPRPLALPRP | 0.665
20 | RRIRKRPPRLPRPRPRPERNPRP | 0.683
21 | RRIRSRPPRLPRPRPRPNSDPRP | -0.0183
22 | RRIRTRPPRLPRPRPRPPPNPRP | 1.22
23 | RRIRLRPPRLPRPRPRPAWKPRP | 0.151
24 | RRIRIRPPRLPRPRPRPEWNPRP | -0.332
25 | RRIRGRPPRLPRPRPRPVFAPRP | 0.696

Row | Sequence | shrunken log2 fold change
26 | RRIRARPPRLPRPRPRPSQHPRP | -0.117
27 | RRIRTRPPRLPRPRPRPIMRPRP | 0.25
28 | RRIRYRPPRLPRPRPRPDRWPRP | -0.118
29 | RRIRTRPPRLPRPRPRPHVAPRP | 0.268
30 | RRIRVRPPRLPRPRPRPAKDPRP | 0.00226
31 | RRIRHRPPRLPRPRPRPHQMPRP | -0.0152
32 | RRIRDRPPRLPRPRPRPHLFPRP | 0.00233
33 | RRIRHRPPRLPRPRPRPRLQPRP | 0.0915
34 | RRIRYRPPRLPRPRPRPHIGPRP | 0.0489
35 | RRIRRRPPRLPRPRPRPYTVPRP | -0.325
36 | RRIRHRPPRLPRPRPRPHHGPRP | -0.755
37 | RRIRHRPPRLPRPRPRPWTMPRP | -0.344
38 | RRIRNRPPRLPRPRPRPYTFPRP | -0.0167
39 | RRIRTRPPRLPRPRPRPGVWPRP | 0.631
40 | RRIRNRPPRLPRPRPRPIMRPRP | 0.00621
41 | RRIRWRPPRLPRPRPRPEQKPRP | 0.0146
42 | RRIRWRPPRLPRPRPRPVYYPRP | -0.412
43 | RRIRHRPPRLPRPRPRPWHRPRP | -0.119
44 | RRIRSRPPRLPRPRPRPPYLPRP | -0.45
45 | RRIRTRPPRLPRPRPRPSHFPRP | -0.315
46 | RRIRWRPPRLPRPRPRPWFTPRP | -0.0224
47 | RRIRKRPPRLPRPRPRPPDFPRP | 0.12
48 | RRIRARPPRLPRPRPRPPSRPRP | 0.691
49 | RRIRMRPPRLPRPRPRPMNDPRP | 0.25
50 | RRIRCRPPRLPRPRPRPTYYPRP | -0.758

Row | Sequence | shrunken log2 fold change
51 | RRIRFRPPRLPRPRPRPNHVPRP | -0.276
52 | RRIRCRPPRLPRPRPRPWHFPRP | -0.422
53 | RRIRSRPPRLPRPRPRPNQSPRP | -0.0432
54 | RRIRLRPPRLPRPRPRPCQNPRP | -0.0404
55 | RRIRVRPPRLPRPRPRPDHIPRP | -0.206
56 | RRIRIRPPRLPRPRPRPSKCPRP | -0.788
57 | RRIRHRPPRLPRPRPRPLYPPRP | -0.804
58 | RRIRCRPPRLPRPRPRPHVGPRP | 0.0562
59 | RRIRNRPPRLPRPRPRPTPHPRP | 0.284
60 | RRIRPRPPRLPRPRPRPRPFPRP | 0.248
61 | RRIRHRPPRLPRPRPRPWFYPRP | -0.244
62 | RRIRQRPPRLPRPRPRPNGDPRP | 0.0171
63 | RRIRFRPPRLPRPRPRPTDMPRP | 0.0617
64 | RRIRSRPPRLPRPRPRPEDWPRP | 0.802
65 | RRIRSRPPRLPRPRPRPQCHPRP | -0.113
66 | RRIRCRPPRLPRPRPRPDPYPRP | -0.197
67 | RRIRTRPPRLPRPRPRPMSWPRP | 0.0201
68 | RRIRRRPPRLPRPRPRPTIPPRP | -0.0701
69 | RRIRLRPPRLPRPRPRPFTGPRP | -0.204
70 | RRIRPRPPRLPRPRPRPLDIPRP | -0.408
71 | RRIRMRPPRLPRPRPRPIPKPRP | 0.0362
72 | RRIRNRPPRLPRPRPRPTYTPRP | -0.303
73 | RRIRVRPPRLPRPRPRPCNRPRP | -0.0287
74 | RRIRNRPPRLPRPRPRPTKMPRP | 0.00053
75 | RRIRSRPPRLPRPRPRPPLMPRP | 0.129

Row | Sequence | shrunken log2 fold change
76 | RRIRKRPPRLPRPRPRPDREPRP | 0.186
77 | RRIRDRPPRLPRPRPRPKCKPRP | -0.0015
78 | RRIRARPPRLPRPRPRPCMKPRP | -0.167
79 | RRIRDRPPRLPRPRPRPVLYPRP | -0.166
80 | RRIRNRPPRLPRPRPRPFMSPRP | -0.17
81 | RRIRTRPPRLPRPRPRPWKKPRP | 0.0414
82 | RRIRRRPPRLPRPRPRPSLEPRP | 0.232
83 | RRIRARPPRLPRPRPRPHNRPRP | -0.00621
84 | RRIRARPPRLPRPRPRPKVYPRP | -0.0122
85 | RRIRQRPPRLPRPRPRPGKQPRP | -0.117
86 | RRIRNRPPRLPRPRPRPLHCPRP | -0.168
87 | RRIRTRPPRLPRPRPRPYHWPRP | -0.675
88 | RRIRLRPPRLPRPRPRPPVFPRP | 0.0392
89 | RRIRTRPPRLPRPRPRPRDCPRP | 0.057
90 | RRIRFRPPRLPRPRPRPGMEPRP | 0.0216
91 | RRIRPRPPRLPRPRPRPWTSPRP | -0.0224
92 | RRIRYRPPRLPRPRPRPHNIPRP | -0.238
93 | RRIRYRPPRLPRPRPRPSHRPRP | -0.479
94 | RRIRPRPPRLPRPRPRPSGQPRP | -0.0898
95 | RRIRGRPPRLPRPRPRPKTEPRP | 0.713
96 | RRIRCRPPRLPRPRPRPILNPRP | -0.431
97 | RRIRNRPPRLPRPRPRPSNMPRP | -0.429
98 | RRIRSRPPRLPRPRPRPIFEPRP | 0.0577
99 | RRIRHRPPRLPRPRPRPKNLPRP | 0.133
100 | RRIRDRPPRLPRPRPRPNNDPRP | 0.132

Row | Sequence | shrunken log2 fold change
101 | RRIRIRPPRLPRPRPRPWTTPRP | -0.102
102 | RRIRDRPPRLPRPRPRPDAHPRP | -0.036
103 | RRIRTRPPRLPRPRPRPSQPPRP | -0.16
104 | RRIRERPPRLPRPRPRPGIFPRP | 0.099
105 | RRIRFRPPRLPRPRPRPWDSPRP | -0.21
106 | RRIRPRPPRLPRPRPRPKVFPRP | -0.0552
107 | RRIRPRPPRLPRPRPRPAASPRP | -0.0885
108 | RRIRERPPRLPRPRPRPMNIPRP | -0.847
109 | RRIRFRPPRLPRPRPRPMGFPRP | -0.0249
110 | RRIRQRPPRLPRPRPRPITQPRP | -0.132
111 | RRIRTRPPRLPRPRPRPLCLPRP | -0.433
112 | RRIRYRPPRLPRPRPRPDGPPRP | 0.123
113 | RRIRPRPPRLPRPRPRPHWHPRP | -0.124
114 | RRIRPRPPRLPRPRPRPVYSPRP | -0.297
115 | RRIRLRPPRLPRPRPRPFDHPRP | -0.0264
116 | RRIRPRPPRLPRPRPRPPGWPRP | 0.484
117 | RRIRIRPPRLPRPRPRPTGSPRP | 0.087
118 | RRIRERPPRLPRPRPRPAQGPRP | 0.473
119 | RRIRSRPPRLPRPRPRPEWRPRP | 0.478
120 | RRIRNRPPRLPRPRPRPVAMPRP | -0.198
121 | RRIRCRPPRLPRPRPRPPGGPRP | 0.539
122 | RRIRQRPPRLPRPRPRPKSLPRP | -0.0933
123 | RRIRLRPPRLPRPRPRPDTFPRP | 0.0621
124 | RRIRGRPPRLPRPRPRPVAWPRP | 0.508
125 | RRIRTRPPRLPRPRPRPSSAPRP | -0.172
